Laboratory results reported in US8765431B2, “Method for enzymatic production of decarboxylated polyketides and fatty acids” (The Regents of the University of Michigan, priority 2009, dated 2014).
Substitutions are numbered along the chain they refer to. In names and notes the source's numbering stands.

B1: H266R: CurM TE control mutation in the catalytic triad (protein)
chain: MEEKFLEFGGNQICLCSWGSPEHPVVLCIHGILEQGLAWQEVALPLAAQGYRVVAPDLFGHGRSSHLEMVTSYSSLTFLAQIDRVIQELPDQPLLLVGHSMGAMLATAIASVRPKKIKELILVELPLPAEESKKESAVNQLTTCLDYLSSTPQHPIFPDVATAASRLRQAIPSLSEEFSYILAQRITQPNQGGVRWSWDAIIRTRSILGLNNLPGGRSQYLEMLKSIQVPTTLVYGDSSKLNRPEDLQQQKMTMTQAKRVFLSGGRNLHIDAAAALASLILTS
B2: R205A: CurM TE point mutant R205A (protein)
chain: B1 chain with R205A, R266H
B3: N211A: CurM TE mutant of conserved Asn interacting with R205 (protein)
chain: B1 chain with N211A, R266H
B4: R205Q: CurM TE point mutant R205Q (protein)
chain: B1 chain with R205Q, R266H
B5: N267A: CurM TE mutant of conserved Asn next to the catalytic His (protein)
chain: B1 chain with R266H, N267A
B6: R205E: CurM TE point mutant R205E (protein)
chain: B1 chain with R205E, R266H

What was measured:
Type in all cases: biochemical, Lyngbya majuscula
CurM ST and TE = test: Coupled ST-TE one-pot reaction (HPLC, LC-MS); details: from model substrate (3R)-1-ACP
Protocol: With the order of the ST and TE reactions established for the acyl-ACP intermediate, the next investigation was to couple the two reactions in one pot. […] Under the same reaction conditions, it was discovered that the CurM TE catalyzed hydrolysis reaction with sulfonated product (3R)-2-ACP was about 800-fold faster than with (3R)-1-ACP. Moreover, TE catalyzed hydrolysis of (3R)-2-ACP was about 120-fold faster than (3S)-2-ACP (FIG. 7).
(§1) Next, experiments were performed to assess whether the proposed sulfonated intermediate (3R)-2 (FIG. 3A) is released following hydrolysis of (3R)-2-ACP, or whether formation of 3 (FIG. 3B) occurs directly by a coordinated decarboxylative elimination process. First, the ST-TE coupled reactions with (3R)-1-ACP were analyzed by LC-MS and a single product was confirmed to be (3R)-2 by co-injection with the corresponding authentic standard (FIG. 3A iii). Due to the expected volatility of 3, the contents of the coupled reaction were extracted with hexane and analyzed by GC-MS. A second product was thus detected and confirmed to be 3 by co-injection with the corresponding authentic standard (FIG. 3B iv). […]
(§2) The ST and TE assays were performed using R)-1-ACP and (3S)-1-ACP substrates. […] All the reactions were incubated at room temperature, quenched by addition of 10% formic acid, and analyzed by reverse-phase HPLC using Jupiter C4 column. […]

CurM TE [1] = test: TE-catalyzed decarboxylative elimination to 3 (GC-MS); details: in 1 hour; free authentic (synthetic) substrate
Protocol: as §1, with “First, the ST-TE coupled reactions with (3R)-1-ACP were analyzed by LC-MS and a single product was confirmed to be (3R)-2 by co-injection with the corresponding authentic standard (FIG. 3A iii).” left out
as §2, with “column. The ACP fractions were collected, lyophilized and analyzed by FTICR-MS and IRMPD.” for “column.”
The samples and authentic standard were analyzed by a 6890N gas chromatograph equipped with a 5973 mass selective quadrupole detector (Agilent). […] Total ion chromatograms were recorded using a mass range of 60-420 amu, and the selective ion chromatograms were recorded by monitoring the two to three most abundant masses plus the parent masses of target compounds.

CurM TE [2] = test: Steady-state kinetic analysis of TE hydrolysis using CoA-linked substrates; details: steady-state kinetics
Protocol: (3S)-1-ACP and (3R)-1-ACP were prepared as the TE substrates to test its stereoselectivity for the β-hydroxyl group. The reactions were analyzed by reverse-phase HPLC, and the separated ACP fractions were examined by Fourier transform ion cyclotron resonance mass spectrometry (FTICR-MS) and infrared multiphoton dissociation (IRMPD) (16) techniques. In addition, the chain-release products were detected by LC-MS and confirmed by co-injection with authentic standards. […] However, TE-catalyzed hydrolysis of (3S)-1-ACP was about 5-fold faster than with (3R)-1-ACP (FIG. 5A). […] However, based on bioinformatic analysis of PKS ketoreductase (KR) sequences (17), the CurM KR was predicted to reduce the β-keto to a (R)-β-hydroxyl group in the full-length chain intermediate.
HPLC-based analyses of the TE hydrolysis were performed using XBridge C18 column (4.6×250 mm, 5 μm, Waters) on the Gold HPLC system equipped with an autosampler and controlled by 32 Karat software (Beckman Coulter). Samples were eluted with a linear gradient from 10% to 90% of MeOH/H2O (10 mM CH3CO2NH4). For steady state kinetic studies. TE hydrolysis was examined in 40 μl 50 mM Tris-HCl buffer (pH 7.0) with 100 μM, 200 μM, 500 μM, 1000 μM and 2000 μM (3R)-1-CoA or (3S)-1-CoA. […] The TE hydrolysis reaction was measured by consumption of CoA substrates. […]

CurM ST = test: ST sulfonation of free acid and ACP-linked substrates (LC-MS, HPLC, FTICR-MS); details: in the presence of ST and PAPS
Protocol: Based on the known mechanism of ST enzyme function, CurM ST was predicted to bind to PAPS, and transfer a sulfonate moiety to the β-hydroxyl group of the intermediate tethered to or released from CurM ACP (FIG. 1B). First, the ST substrate was identified by testing the sulfonation of 1 and 1-ACP. The sulfonation of 1 was analyzed by LC-MS, and that of 1-ACP was examined by HPLC and FTICR-MS. […] Likewise, the stereoselectivity of ST for the β-hydroxyl group was determined by comparing the sulfonation efficiency of (3S)-1-ACP and (3R)-1-ACP. Under the same reaction condition, ST sulfonation with (3R)-1-ACP was about 2.5-fold faster than with (3S)-1-ACP (FIG. 6). Thus, CurM ST stereoselectivity is consistent with the predicted formation of a (R)-β-hydroxyl group by CurM KR.
The ST and TE assays were performed using R)-1-ACP and (3S)-1-ACP substrates. Typically, for the ST reactions, about 300 μM ACP-linked substrate was added with 2 μM ST and 2 mM PAPS in 50 mM Tris-HCl buffer (pH 7.0). For the TE reactions, about 300 μM ACP-linked substrate was added with 2 μM TE in 50 mM Tris-HCl buffer (pH 7.0). All the reactions were incubated at room temperature, quenched by addition of 10% formic acid, and analyzed by reverse-phase HPLC using Jupiter C4 column. The ACP fractions were collected, lyophilized and analyzed by FTICR-MS and IRMPD. […]

[3] = test system: ACP with the sulfated substrate; test: TE point mutant activity assay (liberation of holo ACP, HPLC); details: for Activity compared to wild type: 1 min; for % Activity: relative to wild type CurM TE and free hydrolysis without enzyme, quenched after 1 min
Protocol: The activity of these mutants was tested using the same assay described previously (28). A one-pot reaction was used where CurM ACP was loaded with a synthesized substrate mimic (FIG. 1B) using Svp, after which CurM ST sulfates the β-hydroxyl. Lastly, CurM TE was added and the reaction is quenched after 1 minute. The liberation of holo ACP was detected by a shift on the HPLC. The ratio of holo ACP to ACP with the sulfated substrate was measured. Mutant activity was compared to the activity of wild type CurM TE and free hydrolysis without enzyme in order to obtain percent activity for the mutants (Table 3).
TE activity was assayed using a modification of the protocol developed by Gu et. al. (28). To generate the sulfated substrate for the TE assay, 225 μM loaded ACP was incubated with 5 μM ST, 1.75 mM PAPS (Sigma), in 100 mM Tris pH 7.9 at room temperature for 10 min. Four μM TE was then added to the mixture and the reaction was quenched with 10% formic acid after 1 min. The samples were analyzed by reverse phase HPLC using a Jupiter C4 column (250×2.0 mm, 5 μm, 300 Å, Phenomenex) and a linear elution gradient from 30% to 90% CH3CN (0.1% CF3CO2H)/H2O (0.1% CF3CO2H) over 45 min.

Row | Molecule | Activity compared to wild type [3] | % Activity [3] [%] | also measured
1 | CCCCCCCCCC(C[C@H](CC(=O)O)OS(=O)(=O)O)OC (mixture of isomers) [(3R)-2, (3R,5RS)-3-Sulfonatooxy-5-methoxytetradecanoic acid] | – | – | Level of (3R)-2 as a product of the TE reaction (CurM ST and TE): greater than 50%; Conversion to 3 by TE (CurM TE [1]): about 2 % conversion
2 | CCCCCCCCCC(C[C@H](O)CC(=O)O)OC (mixture of isomers) [(3S)-1, (3S,5RS)-3-Hydroxy-5-methoxytetradecanoic acid] | – | – | Substrate preference of TE (CurM TE [2]): preferred substrate
3 | CCCCCCCCCC(CC(O)CC(=O)O)OC (stereo not shown) [compound 1] | – | – | Substrate conversion by ST (CurM ST): No substrate conversion
4 | B1 | 1 % of WT | 1.4 ± 0.2 | –
5 | B2 | – | 6.1 ± 3.1 | –
6 | B3 | catalytic activity, but at a reduced rate | 54.7 ± 1.8 | –
7 | B4 | – | 1.8 ± 0.3 | –
8 | B5 | catalytic activity, but at a reduced rate | 38.4 ± 3.1 | –
9 | B6 | – | 2.3 ± 2.1 | –
